Values quoted from earlier work as cited in paper PMC8526499.
Like-named read-outs stand apart in the source and are kept apart here.

Legend:
CD47 (Homo sapiens) [1] = target: CD47 (Homo sapiens) (UniProt Q08722)
CD47 (Mus musculus) = CD47 (Mus musculus) (UniProt Q61735)
CD47 (Homo sapiens) [2] = target: CD47 (Homo sapiens) (UniProt Q08722); remark: listed apart in the source
CD47 (Homo sapiens) [3] = target: CD47 (Homo sapiens) (UniProt Q08722); remark: listed apart in the source

UniProt Q08722, sequence (Q08722 19-323): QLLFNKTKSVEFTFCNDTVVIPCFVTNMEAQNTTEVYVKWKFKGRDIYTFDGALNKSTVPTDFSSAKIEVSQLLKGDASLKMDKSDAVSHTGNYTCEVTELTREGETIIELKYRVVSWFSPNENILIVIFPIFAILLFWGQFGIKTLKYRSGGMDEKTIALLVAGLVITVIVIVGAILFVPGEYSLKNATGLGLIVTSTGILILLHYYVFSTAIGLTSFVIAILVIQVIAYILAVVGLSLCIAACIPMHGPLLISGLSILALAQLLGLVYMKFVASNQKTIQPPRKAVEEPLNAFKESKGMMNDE
UniProt Q61735, sequence (Q61735 19-303): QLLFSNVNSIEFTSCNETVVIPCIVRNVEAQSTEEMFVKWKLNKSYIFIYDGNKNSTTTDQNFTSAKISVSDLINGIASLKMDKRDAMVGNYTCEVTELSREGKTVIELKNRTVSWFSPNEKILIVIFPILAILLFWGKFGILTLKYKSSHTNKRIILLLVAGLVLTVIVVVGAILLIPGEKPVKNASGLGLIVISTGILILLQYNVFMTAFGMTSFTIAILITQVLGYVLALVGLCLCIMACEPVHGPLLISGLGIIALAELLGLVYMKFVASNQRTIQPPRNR

Substance: SIRPα (C57BL/6) (from UniProt P97797)
- Kd (CD47 (Homo sapiens) [1]): 5000 nM
- Kd (CD47 (Mus musculus)): 5000 nM

Substance: SIRPα (NOD) (from UniProt P97797)
- Kd (CD47 (Homo sapiens) [2]): 80 nM

Substance: SIRPα (from UniProt P78324)
- Kd (CD47 (Homo sapiens) [3]): 450 nM
